The numbers were not newly measured in PMC5806463, which cites them from elsewhere.

For the series, the target named is IL-18BP (Homo sapiens) (UniProt O95998).
IL-18BP (Homo sapiens), sequence (O95998 31-194): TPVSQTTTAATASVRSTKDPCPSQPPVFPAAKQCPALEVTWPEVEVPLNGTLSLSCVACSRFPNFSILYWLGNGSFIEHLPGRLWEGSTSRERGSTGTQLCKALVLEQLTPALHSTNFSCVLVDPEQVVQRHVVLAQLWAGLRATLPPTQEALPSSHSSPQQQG

IL-18, sequence (Q14116 37-193): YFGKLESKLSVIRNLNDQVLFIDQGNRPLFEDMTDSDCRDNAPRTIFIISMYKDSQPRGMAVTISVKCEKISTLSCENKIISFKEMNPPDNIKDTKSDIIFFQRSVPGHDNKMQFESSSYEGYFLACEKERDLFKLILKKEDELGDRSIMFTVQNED

For IL-18 (from UniProt Q14116), the Kd was 400 pM.
